Reference: article PMC10333360, “Establishing mammalian GLUT kinetics and lipid composition influences in a reconstituted-liposome system” (Nature Communications, 2023)

B1: GLUT1 (Homo sapiens) (protein)
chain: MEPSSKKLTGRLMLAVGGAVLGSLQFGYNTGVINAPQKVIEEFYNQTWVHRYGESILPTTLTTLWSLSVAIFSVGGMIGSFSVGLFVNRFGRRNSMLMMNLLAFVSAVLMGFSKLGKSFEMLILGRFIIGVYCGLTTGFVPMYVGEVSPTALRGALGTLHQLGIVVGILIAQVFGLDSIMGNKDLWPLLLSIIFIPALLQCIVLPFCPESPRFLLINRNEENRAKSVLKKLRGTADVTHDLQEMKEESRQMMREKKVTILELFRSPAYRQPILIAVVLQLSQQLSGINAVFYYSTSIFEKAGVQQPVYATIGSGIVNTAFTVVSLFVVERAGRRTLHLIGLAGMAGCAILMTIALALLEQLPWMSYLSIVAIFGFVAFFEVGPGPIPWFIVAELFSQGPRPAAIAVAGFSNWTSNFIVGMCFQYVEQLCGPYVFIIFTVLLVLFFIFTYFKVPETKGRTFDEIASGFRQGGASQSDKTPEELFHPLGADSQV
B2: hGLUT3 (Homo sapiens) (protein)
chain: MGTQKVTPALIFAITVATIGSFQFGYNTGVINAPEKIIKEFINKTLTDKGNAPPSEVLLTSLWSLSVAIFSVGGMIGSFSVGLFVNRFGRRNSMLIVNLLAVTGGCFMGLCKVAKSVEMLILGRLVIGLFCGLCTGFVPMYIGEISPTALRGAFGTLNQLGIVVGILVAQIFGLEFILGSEELWPLLLGFTILPAILQSAALPFCPESPRFLLINRKEEENAKQILQRLWGTQDVSQDIQEMKDESARMSQEKQVTVLELFRVSSYRQPIIISIVLQLSQQLSGINAVFYYSTGIFKDAGVQEPIYATIGAGVVNTIFTVVSLFLVERAGRRTLHMIGLGGMAFCSTLMTVSLLLKDNYNGMSFVCIGAILVFVAFFEIGPGPIPWFIVAELFSQGPRPAAMAVAGCSNWTSNFLVGLLFPSAAHYLGAYVFIIFTGFLITFLAFTFFKVPETRGRTFEDITRAFEGQAHGADRSGKDGVMEMNSIEPAKETTTNV
B3: hGLUT4 (Homo sapiens) (protein)
chain: MPSGFQQIGSEDGEPPQQRVTGTLVLAVFSAVLGSLQFGYNIGVINAPQKVIEQSYNETWLGRQGPEGPSSIPPGTLTTLWALSVAIFSVGGMISSFLIGIISQWLGRKRAMLVNNVLAVLGGSLMGLANAAASYEMLILGRFLIGAYSGLTSGLVPMYVGEIAPTHLRGALGTLNQLAIVIGILIAQVLGLESLLGTASLWPLLLGLTVLPALLQLVLLPFCPESPRYLYIIQNLEGPARKSLKRLTGWADVSGVLAELKDEKRKLERERPLSLLQLLGSRTHRQPLIIAVVLQLSQQLSGINAVFYYSTSIFETAGVGQPAYATIGAGVVNTVFTLVSVLLVERAGRRTLHLLGLAGMCGCAILMTVALLLLERVPAMSYVSIVAIFGFVAFFEIGPGPIPWFIVAELFSQGPRPAAMAVAGFSNWTSNFIIGMGFQYVAEAMGPYVFLLFAVLLLGFFIFTFLRVPETRGRTFDQISAAFHRTPSLLEQEVKPSTELEYLGPDEND

Legend:
purified protein = substrate: OC[C@H]1OC(O)[C@H](O)[C@@H](O)[C@@H]1O; assay: purified protein
[1] = substrate: OC[C@H]1OC(O)[C@H](O)[C@@H](O)[C@@H]1O; assay: zero-trans transport kinetics in proteoliposomes (KM); assay type: biochemical, Homo sapiens

Row | Protein | Km (purified protein) [µM] | Km [1] [µM]
1 | B1 | 2000 | –
2 | B2 | 1400 | –
3 | B3 | – | 8200
